US20210380680A1 (ZLLP, published 2021)
Where a chain is given by its changes, count along the chain named. In names and notes the source's numbering stands.

B1: 364D1A7-H4L5 (antibody, V domains shown)
VH: DVQLVESGGGLVQPGGSLRLSCAASGFTFSSFGMHWVRQAPGKGLEWVAYISSGSGSIYYADTVKGRFTLSRDNPKNTLYLQMNSLRAEDTAVYYCATSYYYGNALEYWGQGTTVTVSS
VL: DVVLTQSPDSLAVSLGERATISCKSSQSLFNVGNQKNYLTWYQQKPGQTPTLLIYWASTRKSGVPDRFTGSGSGTDFTLTISSLQAEDVAVYYCQNVYSYPLTFGAGTKVEIK
notes: humanized IgG; constant regions not specified
B2: 364D1A7-H1L5 (antibody, V domains shown)
VH: B1 VH with D1E, A49S, L70I, P75A, T78S
VL: B1 VL
notes: as for B1
B3: 364D1A7-H2L2 (antibody, V domains shown)
VH: B1 VH with D1E, L70I, T78S
VL: B1 VL with V2I, S22N, T51K, T69S, A106G
notes: as for B1
B4: 364D1A7-H4L1 (antibody, V domains shown)
VH: B1 VH
VL: B1 VL with V2I, L4M, S22N, T49P, T51K, T69S, A106G
notes: humanized IgG; constant regions not specified; also called 364D1A7-H41L
B5: 413H9F8-H3L4 (antibody, V domains shown)
VH: EVQLVESGGGLVQPGGSLRLSCAASGFTFSSFGMHWVRQAPGKGLEWVAYISSGSSPIYYVDKLKGRFTVSRDNAKNSLYLQMNSLRAEDTAVYYCARAGYAVRNALDYWGQGTLVTVSS
VL: DIVMTQSPDSLAVSLGERATISCKSSQSLLNVGNQKNYLAWYQQKPGQPPKLLIYGASTRESGVPDRFIGSGSGTDFTLTISSLQAEDVAVYFCQNDLFYPLTFGAGTKVEIK
notes: as for B1
B6: 364D1A7-H2L3 (antibody, V domains shown)
VH: B1 VH with D1E, L70I, T78S
VL: B1 VL with S22N, T51K, T69S, A106G
notes: as for B1
B7: 364D1A7-H3L3 (antibody, V domains shown)
VH: B1 VH with D1E, T78S
VL: B1 VL with S22N, T51K, T69S, A106G
notes: as for B1
B8: 364D1A7-H4L4 (antibody, V domains shown)
VH: B1 VH
VL: B1 VL with T69S, A106G
notes: as for B1
B9: 364D1A7-H3L4 (antibody, V domains shown)
VH: B1 VH with D1E, T78S
VL: B1 VL with T69S, A106G
notes: as for B1
B10: 364D1A7-H3L2 (antibody, V domains shown)
VH: B1 VH with D1E, T78S
VL: B1 VL with V2I, S22N, T51K, T69S, A106G
notes: as for B1
B11: 364D1A7-H2L5 (antibody, V domains shown)
VH: B1 VH with D1E, L70I, T78S
VL: B1 VL
notes: as for B1
B12: 364D1A7-H1L3 (antibody, V domains shown)
VH: B1 VH with D1E, A49S, L70I, P75A, T78S
VL: B1 VL with S22N, T51K, T69S, A106G
notes: as for B1
B13: 364D1A7-H4L3 (antibody, V domains shown)
VH: B1 VH
VL: B1 VL with S22N, T51K, T69S, A106G
notes: as for B1
B14: 364D1A7-H2L4 (antibody, V domains shown)
VH: B1 VH with D1E, L70I, T78S
VL: B1 VL with T69S, A106G
notes: as for B1
B15: 364D1A7-H4L2 (antibody, V domains shown)
VH: B1 VH
VL: B1 VL with V2I, S22N, T51K, T69S, A106G
notes: as for B1
B16: 364D1A7-H2L1 (antibody, V domains shown)
VH: B1 VH with D1E, L70I, T78S
VL: B1 VL with V2I, L4M, S22N, T49P, T51K, T69S, A106G
notes: as for B1
B17: 364D1A7-H1L2 (antibody, V domains shown)
VH: B1 VH with D1E, A49S, L70I, P75A, T78S
VL: B1 VL with V2I, S22N, T51K, T69S, A106G
notes: as for B1
B18: 364D1A7-H1L4 (antibody, V domains shown)
VH: B1 VH with D1E, A49S, L70I, P75A, T78S
VL: B1 VL with T69S, A106G
notes: as for B1
B19: 364D1A7-H3L5 (antibody, V domains shown)
VH: B1 VH with D1E, T78S
VL: B1 VL
notes: as for B1
B20: 413H9F8-H1L2 (antibody, V domains shown)
VH: B5 VH with A49S, V70I
VL: B5 VL with S22N, I69S, A106G
notes: as for B1
B21: 413H9F8-H4L2 (antibody, V domains shown)
VH: B5 VH with N84T
VL: B5 VL with S22N, I69S, A106G
notes: as for B1
B22: 413H9F8-H4L1 (antibody, V domains shown)
VH: B5 VH with N84T
VL: B5 VL with S22N, I69S, F93Y, A106G
notes: as for B1
B23: 413H9F8-H3L3 (antibody, V domains shown)
VH: B5 VH
VL: B5 VL with S22N, A106G
notes: as for B1
B24: 413H9F8-H2L3 (antibody, V domains shown)
VH: B5 VH with V70I
VL: B5 VL with S22N, A106G
notes: as for B1
B25: 413H9F8-H1L4 (antibody, V domains shown)
VH: B5 VH with A49S, V70I
VL: B5 VL
notes: as for B1
B26: 413H9F8-H3L1 (antibody, V domains shown)
VH: B5 VH
VL: B5 VL with S22N, I69S, F93Y, A106G
notes: as for B1
B27: 413H9F8-H4L4 (antibody, V domains shown)
VH: B5 VH with N84T
VL: B5 VL
notes: as for B1
B28: 413H9F8-H2L4 (antibody, V domains shown)
VH: B5 VH with V70I
VL: B5 VL
notes: as for B1
B29: 413H9F8-H3L2 (antibody, V domains shown)
VH: B5 VH
VL: B5 VL with S22N, I69S, A106G
notes: as for B1

These binders were tested against T1, human Claudin 18.2 (CLDN18.2) (human, UniProt P56856-2 1-261) (assay: cell-based or functional assay).
For B1, the “% ADCC @ 6.67 nM, NCI-N87-CLDN18.2, FcR-TANK” value (“% ADCC @ 6.67 nM” below) was 12% and the “ADCC EC50, NCI-N87-CLDN18.2, FcR-TANK” value was 0.34 nM. B2 was tested, and the “% ADCC @ 6.67 nM” value was 9.1% and the “ADCC EC50, NCI-N87-CLDN18.2, FcR-TANK” value was 0.26 nM. B3 was tested, and the “% ADCC @ 6.67 nM” value was 9.4% and the “ADCC EC50, NCI-N87-CLDN18.2, FcR-TANK” value was 0.22 nM. B4 was tested, and the “% ADCC @ 6.67 nM” value was 9.3% and the “ADCC EC50, NCI-N87-CLDN18.2, FcR-TANK” value was 0.31 nM. B5 was tested, and the “% ADCC @ 6.67 nM” value was 16% and the “ADCC EC50, NCI-N87-CLDN18.2, FcR-TANK” value was 0.35 nM.

Molecular target: T1, human Claudin 18.2 (CLDN18.2)
Assay: cell-based or functional assay
Remark: another data set of the same source
In the case of B1, the “% specific cytotoxicity @ 6.67 nM, NUGC4-CLDN18.2, PBMC” value (from here on “% specific cytotoxicity @ 6.67 nM”) is reported as 26.4% and the “ADCC EC50, NUGC4-CLDN18.2, PBMC” value is reported as 6.4 nM. For B2, the “% specific cytotoxicity @ 6.67 nM” value was 27.5% and the “ADCC EC50, NUGC4-CLDN18.2, PBMC” value was 8.17 nM. For B3, the “% specific cytotoxicity @ 6.67 nM” value was 26.6% and the “ADCC EC50, NUGC4-CLDN18.2, PBMC” value was 9.69 nM. B4 was tested, and the “% specific cytotoxicity @ 6.67 nM” value was 26.4% and the “ADCC EC50, NUGC4-CLDN18.2, PBMC” value was 7.58 nM. B5 was tested, and the “% specific cytotoxicity @ 6.67 nM” value was 28.7% and the “ADCC EC50, NUGC4-CLDN18.2, PBMC” value was 6.09 nM.

What follows are binders tested against T1, human Claudin 18.2 (CLDN18.2) (assay: FACS on CHO-CLDN18.2 cells).
With B6 the EC50 was 4.4 nM. For B7, the EC50 was 3.54 nM. B8 gave an EC50 of 3.85 nM. In the case of B1, the EC50 is reported as 4.38 nM. B9 showed an EC50 of 4.78 nM. For B10, the EC50 was 4.05 nM. Binder B2 has an EC50 of 3.96 nM. With B11 the EC50 was 3.35 nM. B12 gave an EC50 of 4.1 nM. Work on B13 yielded an EC50 of 4.56 nM. Work on B14 yielded an EC50 of 3.94 nM. For B3, the EC50 was 6.14 nM. With B15 the EC50 was 4.51 nM. Work on B16 yielded an EC50 of 3.47 nM. B4 gave an EC50 of 4.12 nM. In the case of B17, the EC50 is reported as 6.9 nM. Work on B18 yielded an EC50 of 4.03 nM. B19 was tested, and the EC50 was 4.53 nM.

Molecular target: T1, human Claudin 18.2 (CLDN18.2)
Assay: FACS on CHO-CLDN18.2 cells
Remark: another data set of the same source
B20 showed an EC50 of 2.18 nM. With B21 the EC50 was 2.45 nM. With B22 the EC50 was 2.69 nM. B23 showed an EC50 of 2.24 nM. With B24 the EC50 was 2.49 nM. With B25 the EC50 was 3.32 nM. Work on B5 yielded an EC50 of 2.74 nM. B26 was tested, and the EC50 was 2.42 nM. Binder B27 has an EC50 of 2.34 nM. With B28 the EC50 was 2.8 nM. B29 showed an EC50 of 2.14 nM.
